We go through one molecule from US20250368742A1 (D2M BIOTHERAPEUTICS, published 2025).

What is called EC50 is the midpoint of the concentration-response curve. High values mean a need for much substance, low ones an effect from little substance.

This experiment concerns the target T1, human MICA004 on cells (human).
T1 construct: whole, on cells; also called CHO-MICA004; C1R-MICA004
Nature of the experiment: flow cytometry, CHO-MICA004 cells. On the technique in general: In flow cytometry, cells or beads pass a laser one at a time.

T1 sequence (Q29983 whole entry): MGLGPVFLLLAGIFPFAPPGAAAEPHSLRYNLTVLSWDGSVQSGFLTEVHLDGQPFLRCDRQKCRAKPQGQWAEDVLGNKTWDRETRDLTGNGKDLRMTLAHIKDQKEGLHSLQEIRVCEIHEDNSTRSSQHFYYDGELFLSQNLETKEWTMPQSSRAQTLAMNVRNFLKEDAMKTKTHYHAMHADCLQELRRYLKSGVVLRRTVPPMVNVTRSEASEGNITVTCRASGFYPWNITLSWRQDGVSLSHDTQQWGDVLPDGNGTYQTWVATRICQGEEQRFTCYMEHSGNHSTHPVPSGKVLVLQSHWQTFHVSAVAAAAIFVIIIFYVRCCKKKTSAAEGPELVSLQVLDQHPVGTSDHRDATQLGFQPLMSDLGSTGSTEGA

B1: 1D5 (antibody, human IgG1, kappa, V domains shown)
VH: EIQLQQSGPELVKPGASVKVSCKASGYAFTSQNIYWVKQSHGKSLEWIGYIEPYNVVPMYNPKFKGKATLTVDKSSSSAYIHLNSLTSEDSAIYYCARSGSSNFDYWGQGTTLTVSS
VL: EIILTQSPTTMAASPGEKITITCSASSSISSHYLHWYQQKSGFSPKLLIYRTSNLASGVPARFSGSGSGTSYSLTIGTMEAEDVATYYCQQGSSLPLTFGAGTKVEIKR
notes: also called ID5
Molecule B1 displayed an EC50 of 0.051 µg/mL.
